Patent US20230213527A1 (published 2023)
Primed or numbered codes have the meaning given here. Ends that are not written are not given here. FITC′ = not defined here

Legend:
Experiment in all cases: fluorescence polarization
[1] = biological target: labeled peptide with N-terminal valine (X…-FITC, SEQ ID NO: 833, X = V) (C-terminal FITC label)
[2] = biological target: labeled peptide with N-terminal isoleucine (X…-FITC, SEQ ID NO: 833, X = I) (C-terminal FITC label)
[3] = biological target: T1, labeled peptide with N-terminal leucine (XAKLDEESILKQK-FITC, SEQ ID NO: 833, X = L)
T1 peptide: LAKLDEESILKQK-{FITC′}

B1: PS961 (designed binder)
chain: MPTAASATESAIEDTPAPARPEVDGRTKPKRQPRYHVVLWDDDDHTYQYVVVMLRSLFGHPPSRGYRMAKEMDTQGRVIVLTTTREHAELKRDQIHAFGRDRLLARSKGSMKASIEAEE
Kd [1]: 0.144 µM | Kd [2]: 0.068 µM | Kd [3]: 0.055 µM
